Data as given in patent US11021531 (CENTIVAX, dated 2021).
Positions count from the first letter of the chain named.

B1: COVID19_R01_D02 (scFv, V domains shown)
VH: EVQLVESGGGLVQPGGSLRLSCAASGFTFDDYAMHWVRQAPGKGLEWVAIIYEGGSPHYADSVKGRFTISRDNSKNTLYLQMNSLRAEDTAVYYCARDRSGYLDYWGQGTLVTVSS
VL: EIVMTQSPATLSVSPGERATLSCRASQSVSNNLAWYQQKPGQAPRLLIYDASTRATGIPARFSGSGSGTEFTLTISSLQSEDFAVYYCQQYNNWPPTFGGGTKVEIKR
B2: COVID19_P04_B10 (scFv, V domains shown)
VH: EVQLVESGGGLVQPGGSLRLSCAASGFRFSDAAIHWVRQAPGKGLEWVSAISGSGGSTYYADSVKGRFTISRDNSKNTLYLQMNSLRAEDTAVYYCARDRSYGIDYWGQGTLVTVSS
VL: not shown
B3: COVID19_P04_B03 (scFv, V domains shown)
VH: B2 VH with R28T, D31N, A32H, A33Y, I34M, H35S, G103Y, I104L
VL: EIVMTQSPATLSVSPGERATLSCRASQSIGTYLSWYQQKPGQAPRLLIYGASTRATGIPARFSGSGSGTEFTLTISSLQSEDFAVYYCQQSLSLPVTFGGGTKVEIKR
B4: COVID19_P04_E10 (scFv, V domains shown)
VH: EVQLVESGGGLVQPGGSLRLSCAASGFSFSSYGMSWVRQAPGKGLEWVSAMNRDGSYIYYADSVKGRFTISRDNSKNTLYLQMNSLRAEDTAVYYCARDRSYYVGYWGQGTLVTVSS
VL: B1 VL with S30R, N31S, D50G, Y91R
B5: COVID19_P04_G03 (scFv, V domains shown)
VH: EVQLVESGGGLVQPGGSLRLSCAASGFTVSSNYMNWVRQAPGKGLEWVSVVYPGGSTYYADSVKGRFTISRDNSKNTLYLQMNSLRAEDTAVYYCARDRSYYLDYWGQGTLVTVSS
VL: not shown
B6: COVID19_P04_G05 (scFv, V domains shown)
VH: B5 VH with F27L, T28S, S30T, N35S, V51I, Y58F
VL: not shown
B7: COVID19_P04_D08 (scFv, V domains shown)
VH: EVQLVESGGGLVQPGGSLRLSCAASGFTFTNYAMTWVRQAPGKGLEWVSTMSNIGGDTYYADSVKGRFTISRDNSKNTLYLQMNSLRAEDTAVYYCARDRRVYLDYWGQGTLVTVSS
VL: DIQMTQSPSSLSASVGDRVTITCRASQSISSYLNWYQQKPGKAPKLLIYAASSLQSGVPSRFSGSGSGTEFTLTISSLQSEDFAVYYCQQYGSSPLTFGGGTKVEIKR
B8: COVID19_P04_B09 (scFv, V domains shown)
VH: EVQLVESGGGLVQPGGSLRLSCAASGFTFSNSDMNWVRQAPGKGLEWVSAISGTGDTTEYADSVKGRFTISRDNSKNTLYLQMNSLRAEDTAVYYCARDRSLMLDYWGQGTLVTVSS
VL: B1 VL with S30R, N31S, D50G, Y91R
B9: COVID19_R01_C08 (scFv, V domains shown)
VH: B4 VH
VL: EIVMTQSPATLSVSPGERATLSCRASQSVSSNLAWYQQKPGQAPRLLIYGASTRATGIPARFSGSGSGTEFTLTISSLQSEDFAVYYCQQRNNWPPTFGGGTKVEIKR
notes: also called COVID19_R01_CO8
B10: COVID19_R01_B10 (scFv, V domains shown)
VH: B5 VH with N35S, V51I, Y58F
VL: EIVMTQSPATLSVSPGERATLSCRASQSVSSSYLAWYQQKPGQAPRLLIYGASTRATGIPARFSGSGSGTEFTLTISSLQSEDFAVYYCQQASSTPLTFGGGTKVEIKR
B11: COVID19_R01_B01 (scFv, V domains shown)
VH: EVQLVESGGGLVQPGGSLRLSCAASGFTFASHAMSWVRQAPGKGLEWVSGISSDGSITTYADSVKGRFTISRDNSKNTLYLQMNSLRAEDTAVYYCARDRGWYLDYWGQGTLVTVSS
VL: not shown
B12: COVID19_R01_A04 (scFv, V domains shown)
VH: EVQLVESGGGLVQPGGSLRLSCAASGFTFSDHYMSWVRQAPGKGLEWVSAISTSGDSTFYADSVKGRFTISRDNSKNTLYLQMNNLRAEDTAVYYCARDRSYYLDYWGQGTLVTVSS
VL: EIVMTQSPATLSVSPGERATLSCRASQSVRSNLAWYQQKPGQAPRLLIYGASTRATGIPARFSGSGSGTEFTLTISSLQSEDFAVYYCQQFGTSPPGLSFGGGTKVEIKR

Each binder was assayed against SARS-CoV-2 spike protein (on pseudovirus / virus in the neutralisation assays) (SARS-CoV-2, UniProt P0DTC2 14-1273) (assay: cell-based or functional assay).

Binder | IC50 [µg/mL] plaque | IC50 [µg/mL] pseudotyped lenti neutralization
B1 | < 3 µg/mL | 0.62 µg/mL

The binders below were run against SARS-CoV-1 Receptor Binding Domain (RBD) protein (SARS-CoV-1, UniProt P59594 306-527) (assay: SPR (Carterra LSA), scFv captured via anti-V5, RBD as analyte).

Binder | binding result
B2 | no binding (tested: 300 nM (highest analyte concentration))
B3 | no binding (tested: 300 nM (highest analyte concentration))
B4 | no binding (tested: 300 nM (highest analyte concentration))
B5 | no binding (tested: 300 nM (highest analyte concentration))
B6 | no binding (tested: 300 nM (highest analyte concentration))
B7 | no binding (tested: 300 nM (highest analyte concentration))
B8 | no binding (tested: 300 nM (highest analyte concentration))

The binders below were run against MERS Receptor Binding Domain (RBD) protein (MERS coronavirus, UniProt K9N5Q8 367-606) in the same assay as above.

Binder | binding result
B2 | no binding (tested: 300 nM (highest analyte concentration))
B3 | no binding (tested: 300 nM (highest analyte concentration))
B4 | no binding (tested: 300 nM (highest analyte concentration))
B5 | no binding (tested: 300 nM (highest analyte concentration))
B6 | no binding (tested: 300 nM (highest analyte concentration))
B7 | no binding (tested: 300 nM (highest analyte concentration))
B8 | no binding (tested: 300 nM (highest analyte concentration))

What follows are binders tested against SARS-Cov-2 Receptor Binding Domain (RBD) protein (SARS-CoV-2, UniProt P0DTC2 319-541) (assay: SPR (Carterra LSA), scFv captured via anti-V5, RBD as analyte, 1:1 fit).

Binder | Kd | koff | kon
B2 | 2.5 nM | 0.0005 s⁻¹ | 200000 M⁻¹ s⁻¹
B3 | 19.7 nM | 0.0141 s⁻¹ | 716000 M⁻¹ s⁻¹
B9 | 49.5 nM | 0.00379 s⁻¹ | 76600 M⁻¹ s⁻¹
B4 | 4.4 nM | 0.00053 s⁻¹ | 120000 M⁻¹ s⁻¹
B5 | 7.1 nM | 0.00045 s⁻¹ | 63000 M⁻¹ s⁻¹
B10 | 30.4 nM | 0.00294 s⁻¹ | 96900 M⁻¹ s⁻¹
B6 | 0.72 nM | 5.7e-05 s⁻¹ | 79000 M⁻¹ s⁻¹
B7 | 40.7 nM | 0.0113 s⁻¹ | 279000 M⁻¹ s⁻¹
B11 | 12.5 nM | 0.00055 s⁻¹ | 44000 M⁻¹ s⁻¹
B12 | 10.9 nM | 0.012 s⁻¹ | 1.1e+06 M⁻¹ s⁻¹
B1 | 2.8 nM | 0.00058 s⁻¹ | 210000 M⁻¹ s⁻¹
B8 | 1.4 nM | 0.00032 s⁻¹ | 230000 M⁻¹ s⁻¹
